This is an account of results in patent US7910550B2, “Human kunitz-type inhibitor with enhanced antifibrinolytic activity” (STC.UNM, priority 2004, dated 2011).

In assay [1] the test system is HT-1080 cells. The assay can be described thus: FACS analysis of apoptosis with annexin V/propidium iodide. The class given is cell-based, human. The settings on record: 1 μM, 48 hours; for cells in a late apoptotic stage (annexin V and PI positive): vehicle 4%; for early apoptotic cells (annexin V-FITC positive): vehicle 16%. On the procedure: (§1) All cell lines were maintained in Dulbecco's minimal essential medium (DMEM), supplemented with heat-inactivated 10% fetal bovine serum and penicillin-streptomycin. The cells were cultured either in 6- or 12-well plates at 37° C. in a humidified atmosphere containing 6% CO2. At confluence, the cells were treated with fresh medium containing either wild-type TFPI-2, R24K KD1, or R24Q KD1. Cells were treated in duplicate with purified proteins at concentrations ranging from 0.5 μM to 10 μM for different time intervals. One set were also treated with PBS to serve as a control. The Limulus Amebocyte Lysate (LAL) assay was performed on each protein preparation to determine the presence of any endotoxin/LPS, and only trace amounts of endotoxin (<0.5 ng/L) were detected in each protein preparation.
To assess the degree of apoptosis between the various treatments, cells were grown to confluence in 6 well plates and treated with either proteins or vehicle as described earlier. For annexin V staining, approximately 1.2×10^6 cells were harvested with PBS containing 1 mM EDTA and washed twice gently with cold PBS. The cells were suspended in 100 μl of cold binding buffer (10 mM Hepes (pH 7.4), 140 mM NaCl, 2.5 mM CaCl2), and subsequently incubated at room temperature in the dark for 25 minutes with 5 μl of FITC-conjugated annexin V and 10 μl of propidium iodide (50 μg/ml stock). The cells were then washed in 500 μl of binding buffer to remove unbound reagents, centrifuged at 900×g for 5 minutes, and resuspended in 1 ml of cold binding buffer. The labeled cells were then analyzed using a FACSCALIBUR flow cytometer (Becton Dickinson, San Jose, Calif.) and the data analyzed using […] software.

The target in assay [2] is factor VIIa-tissue factor complex (Homo sapiens, UniProt P08709). The experiment in a line: Inhibition assay for factor VIIa-tissue factor amidolytic activity (S-2288). As to conditions: relative to wild-type KD1. The class given is biochemical. On the set-up: purchased Novo Nordisk (Copenhagen, Denmark) for factor VIIa (provided as a gift); soluble tissue factor prepared in house by a published method (Petersen et al., 1996). On the procedure: Recombinant soluble human tissue factor (100 nM) and factor VIIa (50 nM) were incubated in a TBS-BSA buffer/5 mM CaCl2 for 15 minutes at 37° C. Following this incubation, aliquots (100 μl) were dispensed into a 96-well microtitration plate and treated with serial dilutions of inhibitors dissolved in TBS buffer. After 15 minutes of incubation, 30 μl of S-2288 (final concentration, 1 mM) was added to each well and the absorbance at 405 nm was determined as described earlier.
The apparent inhibition constant, Ki′ was determined using the non-linear regression data analysis program Ultrafitfv3.0 (Biosoft). Trypsin and plasmin inhibitory data were analyzed according to the following equation for a tight-binding inhibitor: vi=v0[√(Ki′+[I]0+[E]0)^2−4[I]0[E]0−(Ki′+[I]0−[E]0)]/2[E]0 where vi and v0 are the inhibited and uninhibited rates, respectively, and [I]0 and [E]0 are the total concentrations of inhibitor and enzyme, respectively. Factor VIIa-tissue factor inhibition data, where Ki>>[E]0, were analyzed according to the following equation: vi=v0/(1+[I]0/Ki′) Ki values were obtained by correcting for the effect of substrate according to Bieth et al. (Biochem. Med., 32:387-397, 1984), where Ki=Ki′/(1+[S]/Km) Results Molecular Modeling and Selection of Mutations

Assay [3] relates to HT-1080 cells. The assay can be described thus: DNA fragmentation analysis by agarose gel electrophoresis. The class given is cell-based, human. The settings on record: 48 hours. The method, then:
Cells were grown to confluence in 6-well plates and treated with either wild-type TFPI-2 or R24K KD1 at the same concentrations described above. After incubation for either 24 or 48 hours at 37° C., the cells were harvested and washed twice with PBS. The DNA was then extracted using the DNEASY tissue kit (Qiagen, Valencia, Calif.) accordingly to the manufacturer's instructions. DNA extracts were electrophoresed in 1.8% agarose gels at 100 V for 45 minutes and visualized with ethidium bromide staining under UV illumination.

For assay [4], the system named is HT-1080 cells. The experiment in a line: Western blot of cell extracts (Bax, Bcl-2, cleaved caspase-9, cleaved caspase-3). As to conditions: 1 μM, 48 hours; for activated caspase 9 and activated caspase 3 (immunoblot): vs vehicle-treated cells. The class given is cell-based, human. The method, then:
Cell extracts were analyzed for the pro-apoptotic Bax, the anti-apoptotic Bcl-2, cleaved caspase-9 and cleaved caspase-3 by immunoblotting techniques. Approximately, 1×10^6 HT-1080 cells were grown to confluence in 6-well plates and treated with recombinant proteins and vehicle as described above. Both floating and adherent cells were harvested and washed twice with cold PBS. The cells were lysed by sonication in 500 μl of lysis buffer containing of 125 mM Tris-HCl (pH 6.8), 2% SDS, 10% glycerol, 50 mM sodium phosphate, 1 mM PMSF and protease inhibitor cocktail. The lysate was kept on ice for about 10 minutes, centrifuged for 15 minutes at 10,000×g at 4° C., and the supernatant recovered. The supernatants were boiled for 3 min and 50 μg of lysate protein subjected to SDS-PAGE in 4-20% polyacrylamide gradient gels. […] The nitrocellulose membranes were then probed with specific antibodies dissolved in fresh blocking buffer, and immunoreactive proteins were identified using HRP-conjugated secondary antibodies and a chemiluminescent reagent system essentially as described in Kempiah et al., Mol. Cancer, 6:20, 2007. Separate blots were treated with mouse monoclonal anti-α-tubulin antibody in order to verify equal loading of lysate proteins onto the gel.

In assay [5] the test system is HT-1080 cells. The experiment in a line: Apoptosis detection by AO/EB staining. The class given is cell-based, human. The settings on record: 1 μM, 48 h; approximately 5% in vehicle-treated cells. On the procedure:
as §1
Cells were grown to confluence in two-chamber culture slides containing 2 ml medium. For AO/EB staining, the cultures were treated with recombinant proteins as described above. […] Cells were viewed within 30 minutes of staining and counted using a Zeiss axiocam epifluorescence microscope (Carl Zeiss, Inc., Thornwood, N.Y.) equipped with a triple cube filter [DAPI/FITC/RITC]. […] Experiments were performed in triplicate, and a minimum of 100 total live and apoptotic cells were counted in each treatment.

Chain of factor VIIa-tissue factor complex (P08709 213-466 limits assumed): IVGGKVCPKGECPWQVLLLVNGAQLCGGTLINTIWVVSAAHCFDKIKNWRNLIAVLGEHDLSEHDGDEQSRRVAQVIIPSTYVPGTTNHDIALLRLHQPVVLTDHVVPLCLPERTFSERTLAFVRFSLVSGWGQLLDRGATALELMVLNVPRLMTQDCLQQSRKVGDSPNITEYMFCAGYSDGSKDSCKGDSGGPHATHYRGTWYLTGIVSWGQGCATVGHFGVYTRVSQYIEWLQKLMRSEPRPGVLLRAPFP
Chain of factor VIIa-tissue factor complex (P08709 61-212 partner limits assumed): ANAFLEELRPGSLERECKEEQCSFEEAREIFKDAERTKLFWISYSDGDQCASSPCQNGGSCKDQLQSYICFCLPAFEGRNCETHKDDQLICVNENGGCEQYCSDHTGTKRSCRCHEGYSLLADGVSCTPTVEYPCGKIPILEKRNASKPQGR
Chain of factor VIIa-tissue factor complex (P13726 33-251 partner limits assumed): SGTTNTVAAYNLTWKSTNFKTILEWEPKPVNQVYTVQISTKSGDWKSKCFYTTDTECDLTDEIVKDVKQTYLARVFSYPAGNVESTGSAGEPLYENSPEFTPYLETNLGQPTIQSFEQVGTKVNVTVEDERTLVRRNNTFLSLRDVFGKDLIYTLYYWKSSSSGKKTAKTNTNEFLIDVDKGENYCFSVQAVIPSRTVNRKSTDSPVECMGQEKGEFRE

B1: R24K KD1: KD1 with lysine in place of arginine at position 24 (SEQ ID NO:3) (protein)
chain: DAAQEPTGNNAEICLLPLDYGPCKALLLRYYYDRYTQSCRQFLYGGCEGNANNFYTWEACDDACWRIEKVPKV
modifications: mutated active domain
In the case of B1, in assay [1], the “cells in a late apoptotic stage (annexin V and PI positive)” value is recorded as about 58%; the “early apoptotic cells (annexin V-FITC positive)” value is given as 41%. Also, the “reduction in inhibitory activity towards factor VIIa / VIIa-TF” value in assay [2] is given as “approximately five-fold”. Moreover, the DNA fragmentation result in assay [3] is “ladder pattern typically associated with DNA fragmentation and apoptosis”. Further, in assay [4], the “Bax and Bcl-2 protein expression (immunoblot)” value is “increased expression of the pro-apoptotic protein, Bax, and decreased expression of the anti-apoptotic protein, Bcl-2”; the “activated caspase 9 and activated caspase 3 (immunoblot)” value is “activation of caspase-9 and caspase-3”.

B2: TFPI-2: Human tissue factor pathway inhibitor-2, 213 amino acid polypeptide with three tandem Kunitz-type domains (SEQ ID NO:1) (protein, listed as Homo sapiens)
chain: DAAQEPTGNNAEICLLPLDYGPCRALLLRYYYDRYTQSCRQFLYGGCEGNANNFYTWEACDDACWRIEKVPKVCRLQVSVDDQCEGSTEKYFFNLSSMTCEKFFSGGCHRNRIENRFPDEATCMGFCAPKKIPSFCYSPKDEGLCSANVTRYYFNPRYRTCDAFTYTGCGGNDNNFVSREDCKRACAKALKKKKKMPKLRFASRIRKIRKKQF
Regarding B2, in assay [1], the “cells in a late apoptotic stage (annexin V and PI positive)” value is about 43%; the “early apoptotic cells (annexin V-FITC positive)” value is given as 55%. The “apoptotic cells (AO/EB staining)” value in assay [5] is given as 39%. For the same molecule, in assay [3], the DNA fragmentation result is “ladder pattern typically associated with DNA fragmentation and apoptosis”. Moreover, in assay [4], the “Bax and Bcl-2 protein expression (immunoblot)” value is “increased expression of the pro-apoptotic protein, Bax, and decreased expression of the anti-apoptotic protein, Bcl-2”; the “activated caspase 9 and activated caspase 3 (immunoblot)” value was “activation of caspase-9 and caspase-3”.
